According to doi:10.1101/433839:

Key:
[1] = molecular target: wild-type SsuE (NADPH-dependent FMN reductase of the alkanesulfonate monooxygenase system) (UniProt P80644); assay: other fluorescence titration
Y118A SsuE = Y118A SsuE (UniProt P80644); assay: other fluorescence titration

- Kd [1]: 40 nM
- Kd (Y118A SsuE): 122 nM
B1: wild-type SsuD (FMNH2-dependent alkanesulfonate monooxygenase) (enzyme)
chain: MSLNMFWFLPTHGDGHYLGTEEGSRPVDHGYLQQIAQAADRLGYTGVLIPTGRSCEDAWLVAASMIPVTQRLKFLVALRPSVTSPTVAARQAATLDRLSNGRALFNLVTGSDPQELAGDGVFLDHSERYEASAEFTQVWRRLLQRETVDFNGKHIHVRGAKLLFPAIQQPYPPLYFGGSSDVAQELAAEQVDLYLTWGEPPELVKEKIEQVRAKAAAHGRKIRFGIRLHVIVRETNDEAWQAAERLISHLDDETIAKAQAAFARTDSVGQQRMAALHNGKRDNLEISPNLWAGVGLVRGGAGTALVGDGPTVAARINEYAALGIDSFVLSGYPHLEEAYRVGELLFPLLDVAIPEIPQPQPLNPQGEAVANDFIPRKVAQS
